Laboratory results from article PMC8996997 (2022).

Biological target: His×6-YY1(wt) (human, UniProt P25490 1-414)
Test: SPR

B1: His×6-YY1(260–414) (domain or fragment)
chain: LPPGGIPGIDLSDPKQLAEFARMKPRKIKEDDAPRTIACPHKGCTKMFRDNSAMRKHLHTHGPRVHVCAECGKAFVESSKLKRHQLVHTGEKPFQCTFEGCGKRFSLDFNLRTHVRIHTGDRPYVCPFDGCNKKFAQSTNLKSHILTHAKAKNNQ
- Kd: 258 nM
